Laboratory results reported in a protein production outcome set (Wang et al. 2014).

Test: label from the status in PepcDB records
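Note: failed if final PepcDB status was selected cloned or expressed and not failed if soluble or beyond.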

Question: With “MSLRDFGLLVLICLIWAGSNIISKLVVAHWGVPPLYYAAVRFALVAALTLPWLLPAPRPTWRMVLVGLLMGGGNFALLFMGFQTASPSAASVVIQVGVPFTTLLSVLILGEKIRWRRGLGIALTLLGAVVVMWSPKGIELSAGLWLIVAAAFTGSLGAVMMKQIEGVKPLQFQAWVGFSSVWPLAAMSAFMEPGQVAAGFAAGWPFVAAVVFSAVVVSILAHTAYYGLIQRYEANLIAPLTLMTPLFTIGMGVVVTNDHFDLRMGIGAALALLGVLIIALRRNQVMPLLTSLRSRLQ” as the sequence, how does the protein production read?
Answer: failed

Question: Which protein production does the source give for “MSLRDTQTQLRNEMIYSVFVRNYSEAGNFAGVTADLQRIKDLGTDILWLLPINPIGEVNRKGTLGSPYAIKDYRGINPEYGTLADFKALTDRAHELGMKVMLDIVYNHTSPDSVLATEHPEWFYHDADGQLTNKVGDWSDVKDLDYGHHELWQYQIDTLLYWSQFVDGYRCDVAPLVPLDFWLEARKQVNAKYPETLWLAESAGSGFIEELRSQGYTGLSDSELYQAFDMTYDYDVFGDFKDYWQGRSTVERYVDLLQRQDATFPGNYVKMRFLENHDNARMMSLMHSKAEAVNNLTWIFMQRGIPLIYNGQEFLAEHQPSLFDRDTMVADRHGDVTPLIQKLVTIKQLPLLRAADYQLAVVEEGIVKITYRAAGEALTAWIPLKGQVTAVATKLAAGSYQNLLTDGPTEVVDGKLTVDGQPVLIKYVTNTAVTKVADQSNEGHHHHHH” here?
Answer: not failed

Question: For “MSLRHLYIEEGRTVCASATSRNRRPTSESPHSDDVVVVEGMLRGRPETRVHAMFDGFQGRHSAMWLAQNVMNYLNDLRDVNEEEITRQFERMDGDLRAANLPGGSSALIIFVRYEKKPTEARVVGRQIVPEGAKEFTSVAEALGGPLMPVVAMNFRRDPRAAKGIYTIHVASLGNSRCVLKSGRTAIHLSTPHTASSHKERHRVQAAGGVFTTVNGELLLGGVVPMTRAFGSFDFKKGGQGKLQQDLVSAVPDVTTFFAYPGDDIVAGTAGAFAHFRSHAAIAAAIALYPVSPETVLDAAKAMVVNAKRRKVTKNISTFVRHLPESRTRSQKMLEGTSGENGEEDFSIDRTNELTQALQAGFFSFLLYYEGHHHHHH”, which protein production is on record?
Answer: not failed

Question: For “MSLRKEPYLLVFGASVVDVFGFSKASYRPYNSTPGHVKISFGGVCRNIAENMARVGVNTNFMSILGNDEHGKSIVEHSKKIGYHMDDSMVIEGGSTPTYLAILDENGEMVSAIADMKSIGAMNTDFIDSKREIFENAEYTVLDSDNPEIMEYLLKNFKDKTNFILDPVSAEKASWVKHLIKDFHTIKPNRHEAEILAGFPITDTDDLIKASNYFLGLGIKKVFISLDADGIFYNDGVSCGKIKATEVDVKNVTGAGDSFVAGLGYGYMNKMPIEDIVKFAMTMSNITISHEETIHPDMALDTVLAKLEKTTWEEEKYDLNEGHHHHHH”, which protein production is on record?
Answer: not failed

Question: For “MSLRNPVLAGLSVEEIREAVSGEYLIEPREEKMVEQVVIGAMSPQSALRYLREARNAALVTGGDRSDLLLTALEMPNVRCLILTGNLEPVQLVLTKAEERGVPVILTGHDTLTAVSRLESVFGRTRIRGEPKVGIMRELFESEGHHHHHH”, which protein production is on record?
Answer: not failed

Question: Which protein production does the source give for “MSLRQVIPIPSPPAKYLLPEVTVLDYGKKCVVIDLDETLVHSSFKPISNADFIVPVEIDGTIHQVYVLKRPHVDEFLQRMGQLFECVLFTASLAKYADPVADLLDRWGVFRARLFRESCVFHRGNYVKDLSRLGRELSKVIIVDNSPASYIFHPENAVPVQSWFDDMTDTELLDLIPFFEGLSREDDEGHHHHHH” here?
Answer: not failed

Question: With “MSLSAPRITRVETAAIRAVGPSVLVRVWAGDEHGLGECYPSAPAAGIHHIVMNMEEQLLGEDPRDVERLYEKMRRWNIFTGGQAGAVITALSGIETALWDLAGKLQGVPVYRLLGGAFRRRVRLYADCNAGTVDAAAHHIEGGLFVEGSNEEYIAVAREAVERGFDAIKLDVDDITGPLHRDFWNGAISPREHEAMVARVAAVREAVGPEVEVAIDMHGRFDIPSSIRFARAMEPFGLLWLEEPTPPENLDALAEVRRSTSTPICAGENVYTRFDFRELFAKRAVDYVMPDVAKCGGLAEAKRIANLAELDYIPFAPHNVSSPVGTVAAAHVCAAVSNFAVLEWHAIDMPHWEDFVRYPGGPVIREGHIELTEEPGLGLELDEEAAFEHRHEKGGVPFFGRTEGHHHHHH” as the sequence, how does the protein production read?
Answer: not failed

Question: Which protein production does the source give for “MSLSDESFEFDVSVIGLGAMGTIMAQVLLKQGKRVAIWNRSPGKAAALVAAGAHLCESVKAALSASPATIFVLLDNHATHEVLGMPGVARALAHRTIVDYTTNAQDEGLALQGLVNQAGGHYVKGMIVAYPRNVGHRESHSIHTGDREAFEQHRALLEGLAGHTVFLPWDEALAFATVLHAHAFAAMVTFFEAVGAGDRFGLPVSKTARLLLETSRFFVADALEEAVRRLETQDFKGDQARLDVHADAFAHIAQSLHAQGVWTPVFDAVCQVVQRAAAMGYGDQDIAATTKSFAREQEEGHHHHHH” here?
Answer: not failed

Question: For “MSLSDWHLAVKLADQPLAPKSILQLPETELGEYSLGGYSISFLKQLIAGKLQESVPDPELIDLIYCGRKLKDDQTLDFYGIQPGSTVHVLRKSW”, which protein production is on record?
Answer: not failed

Question: Which protein production does the source give for “MSLSEIKHWVFDMDGTLTIAVHDFAAIREALSIPAEDDILTHLAALPADESAAKHAWLLEHERDLAQGSRPAPGAVELVRELAGRGYRLGILTRNARELAHVTLEAIGLADCFAEADVLGRDEAPPKPHPGGLLKLAEAWDVSPSRMVMVGDYRFDLDCGRAAGTRTVLVNLPDNPWPELTDWHARDCAQLRDLLSAEGHHHHHH” here?
Answer: not failed

Question: With “MSLSEIKRKFDAVSGKYDEQRRKFIPCFDDFYGVSVSIASVDTENPDILDLGAGTGLLSAFLMEKYPEATFTLVDMSEKMLEIAKNRFRGNLKVKYIEADYSKYDFEEKYDMVVSALSIHHLEDEDKKELYKRSYSILKESGIFINADLVHGETAFIENLNKTIWRQYVENSGLTEEEIAAGYERSKLDKDIEMNQQLNWLKEAGFRDVSCIYKYYQFAVMFGRKTEGHHHHHH” as the sequence, how does the protein production read?
Answer: not failed

Question: Which protein production does the source give for “MSLSEPAWSLHSRLKEDTIDIGDLPLSKVLVIKDANYPWLLLVPRRPDAVEIIDLDEVQQAQLMTEISRVSRALKEITKCDKLNIAALGNLVPQLHVHIIARRTGDAAWPRPVWGVMQPLAHDATEVQNFISALRRKIWLGEGHHHHHH” here?
Answer: not failed

Question: For “MSLSFMIGYSWTQTEPGQVNHILDQFLSSMVREAGAVNYFVLPFPFSEDRSQIDIYRDLIRSGNVDGFVLSSINYNDPRVQFLLKQKFPFVAFGRSNPDWDFAWVDIDGTAGTRQAVEYLIGRGHRRIAILAWPEDSRVGNDRLQGYLEAMQTAQLPIETGYILRGEGTFEVGRAMTLHLLDLSPERRPTAIMTLNDTMAIGAMAAARERGLTIGTDLAIIGFDDAPMVQYLFPPLSSVRQPIAEAGRKCIELLVAIVEGREPEQKHILLQPSLIIRASEGLITITTDPNSSSVDKLAAALEHHHHHH”, which protein production is on record?
Answer: not failed

Question: For “MSLSIVRIDAEDRWSDVVIYNNTLWYTGVPENLDADAFEQTANTLAQIDAVLEKQGSSKSRILDATIFLSDKADFAAMNKAWDAWVVAGHAPVRCTVQAGLMNPKYKVEIKIVAAVEGHHHHHH”, which protein production is on record?
Answer: not failed

Question: With “MSLSLSHFRITRFQFARDRVIGDSQVRADDVNVAALELVSESGEVGLGFIQTLFNPLPDQQEIESVFEHEVWPSLKGNRAIALVHRVNRPRGGNQRAYSLPFHEAVQVALWDLAAKEAGLPLHVLLGSRRNRVKAYASGLDFHLDDDAFVSLFSHAASIGYSAFKIKVGHRDFDRDLRRLELLKTCVPAGSKVMIDPNEAWTSKEALTKLVAIREAGHDLLWVEDPILRHDHDGLRTLRHAVTWTQINSGEYLDLQGKRLLLEAHAADILNVHGQVTDVMRIGWLAAELGIPISIGNTFLEAGVHMAVALPEVEWLEYSFQNFDHLVEQPIEIRDGYAYAPDRPGHGLVLSEKARGEWSRPRRLARSELGAAPENPRLPAKEGHHHHHH” as the sequence, how does the protein production read?
Answer: not failed

Question: For “MSLSTAADLLRQGAACSVLYLTSVETESLTGPQAVARASSAALSCSPRPTPAVVHFKVSAQGITLTDNQRKLFFRRHYPVNSITFSSTDPQDRRWTNPDGTTSKIFGFVAKKPGSPWENVCHLFAELDPDQPAGAIVTFITKVMLGQRKEGHHHHHH”, which protein production is on record?
Answer: not failed

Question: Which protein production does the source give for “MSLSTIRIGGAAVNQTPIDWENNVKNILDAIEEAKNANVEILCLPELCITGYGCEDLFLTDWVAETAIEYCFEIAASCTDITVSLGLPMRIAGITYNCVCLVENGIVKGFSAKQFLANEGVHYETRWFTAWPRNHTTTFLYNDVKYPFGDVLYNVKDARIGFEICEDAWRTDRVGIRHYEKGATLVLNPSASHFAFGKSAIRYDLVIGGSERFDCTYVYANLLGNEAGRMIYDGEVLIAHKGKLIQRNDRLSFKNVNLIYADIATDSAETPETVLTQDDLEKEFEFWEATSLGLFDYMRKSRSKGFVLSLSGGADSSACAIMVAEMIRKGLKELGLTAFLQKSNMETLFDLPALQHLPFEEQAKKITAVFLTTAYQSTRNSGDETYTSAKTLAESIGATFYNWSVDEEIEQYKATIENVIERPLTWEKDDITLQNIQARGRAPIIWMLTNVKQALLITTSNRSEGDVGYATMDGDTAGGIAPIAGVDKDFIRSWLRWAEKNRNQHGLHIVNKLAPTAELRPSEYTQTDERDLMPYDVLARIERKAIKERLSPVQVYTALLTEGPYTKNEFKYWVKKFFRLWSINQWKRERLAPSFHMDDFNIDPRSWYRFPILSSGFAKELNDLDQEGHHHHHH” here?
Answer: not failed

Question: With “MSLSWEIEELDREIGKIKKHSLILIHEEDASSRGKDILFYILSRKLKSDNLVGMFSISYPLQLIIRILSRFGVDVIKYLENHRLAIVDTFGSFHGIKATMPGVWYLEGMLSSETLPIKYAKAVEDHKKVWMDLNLFEGRELYGFAISMSGYLEVFTPEETLRYLETSAEVRYGHPAYKKYPRGTNFWLWEGVKDKRVLLSVYRRADYVLKTRSSLGENGIKRELLVIKTPKPIEELVRFEYEFKGNEPKLRREGHHHHHH” as the sequence, how does the protein production read?
Answer: not failed

Question: Which protein production does the source give for “MSLTDEPKLLAEPREGVPNVIDTLPAFRDYCSELASSHGSLAADAERASGFRYGHEDWLVQFKRDGAGIGLLDPQALAAAGADWNDFNRAVGDAVWILHDSLQDLPGFDELGMEPQRLFDTEIAARLLGLKRFGLAAVTEHFLGLTLAKEHSAADWSYRPLPRDWRNYAALDVELLIELETKMRAELKRQGKMEWAQEEFDYALKEGLGPRKEHLIPWMHVSHITEVMRDRQALAIVRALWTRRDELAREYDIAPTLLLSDSSIIEVAKRKPHNAAQFRSIRSINERVRIHTDSEQDKMFERYAPIQRKIKPSMWKNIIQDALALPPSEWPDVDGGAARRHESQSASAPKSIRVWKERYPERLQVLNRVRKAVSQIAEDTRTPVEIVIKPQYLRNLCWTDEPRKRDVARFLSEQGARDWQVSLVAESVSRAIEGHHHHHH” here?
Answer: not failed

Question: For “MSLTGNAQAATIADPSTLVVDTVGPVLTIGLNRPKKRNALNDGLMAALKDCLTDIPDQIRAVVIHGIGDHFSAGLDLSELRERDATEGLVHSQTWHRVFDKIQYCRVPVIAALKGAVIGGGLELACAAHIRVAEASAYYALPEGSRGIFVGGGGSVRLPRLIGVARMADMMLTGRVYSAAEGVVHGFSQYLIENGSAYDKALELGNRVAQNAPLTNFAVLQALPMIAEANPQTGLLMESLMATVAQSDQEAKTRIRAFLDHKTAKVREGHHHHHH”, which protein production is on record?
Answer: not failed

Question: For “MSLTHVIWDMGETLNTVPNTRYDHHPLDTYPEVVLRKNAKETLEKVKQLGFKQAILSNTATSDTEVIKRVLTNFGIIDYFDFIYASNSELQPGKMEKPDKTIFDFTLNALQIDKTEAVMVGNTFESDIIGANRAGIHAIWLQNPEVCLQDERLPLVAPPFVIPVWDLADVPEALLLLKKISEGHHHHHH”, which protein production is on record?
Answer: not failed

Question: With “MSLTKIDAYAHILPAKYYQKMLSVEPNIPNMFPFIKIKTLMDLDERLTKWPDQNTKQVISLANISPEDFTDSKTSAELCQSANEELSNLVDQHPGKFAGAVAILPMNNIESACKVISSIKDDENLVGAQIFTRHLGKSIADKEFRPVLAQAAKLHVPLWMHPVFDARKPDNNLVFSWEYELSQAMLQLVQSDLFQDYPNLKILVHHAGAMVPFFSGRIDHILDEKHAQDFKKFYVDTAILGNTPALQLAIDYYGIDHVLFGTDAPFAVMPSGADQIITQAINDLTISDKDKQKIFHDNYYSLIKEGHHHHHH” as the sequence, how does the protein production read?
Answer: not failed
